Consider one substance from US20120114659A1.

This test concerns the target human NPRA on HEK cells, without ligand (human) (UniProt P16066). The experiment in a line: cell-based or functional assay.

Sequence of BNP (B-type natriuretic peptide) (P16860 103-134): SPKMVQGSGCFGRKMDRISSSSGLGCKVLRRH
Sequence of human NPRA on HEK cells, without ligand (human) (P16066 33-1061 limits assumed): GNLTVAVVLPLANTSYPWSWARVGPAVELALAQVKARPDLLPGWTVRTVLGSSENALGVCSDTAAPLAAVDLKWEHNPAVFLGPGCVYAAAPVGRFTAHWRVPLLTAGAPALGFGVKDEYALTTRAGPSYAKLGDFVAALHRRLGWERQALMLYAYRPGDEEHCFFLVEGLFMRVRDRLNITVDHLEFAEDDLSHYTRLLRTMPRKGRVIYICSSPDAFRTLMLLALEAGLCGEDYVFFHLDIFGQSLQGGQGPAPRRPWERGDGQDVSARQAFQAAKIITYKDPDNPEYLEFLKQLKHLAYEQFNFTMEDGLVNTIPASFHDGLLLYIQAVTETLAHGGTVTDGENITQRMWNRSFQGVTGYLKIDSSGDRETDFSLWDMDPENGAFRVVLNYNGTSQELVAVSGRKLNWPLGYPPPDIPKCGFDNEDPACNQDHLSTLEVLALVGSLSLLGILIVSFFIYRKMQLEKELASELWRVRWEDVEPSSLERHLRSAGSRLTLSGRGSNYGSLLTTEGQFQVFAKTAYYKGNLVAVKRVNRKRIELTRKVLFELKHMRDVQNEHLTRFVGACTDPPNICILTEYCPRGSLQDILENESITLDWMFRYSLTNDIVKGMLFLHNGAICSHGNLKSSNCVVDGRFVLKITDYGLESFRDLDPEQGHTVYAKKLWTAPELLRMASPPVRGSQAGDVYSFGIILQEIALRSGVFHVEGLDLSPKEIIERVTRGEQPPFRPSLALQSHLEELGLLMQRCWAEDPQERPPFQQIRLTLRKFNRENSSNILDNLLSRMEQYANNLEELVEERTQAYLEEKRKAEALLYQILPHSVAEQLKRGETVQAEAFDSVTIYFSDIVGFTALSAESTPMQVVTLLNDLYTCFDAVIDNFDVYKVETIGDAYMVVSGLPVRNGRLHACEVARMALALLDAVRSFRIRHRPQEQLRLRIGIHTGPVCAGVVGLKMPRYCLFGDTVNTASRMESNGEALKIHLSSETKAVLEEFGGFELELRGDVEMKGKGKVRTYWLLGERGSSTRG

As for “BNP (B-type natriuretic peptide) (from UniProt P16860 103-134)”, the EC50 of BNP for cGMP production in HEK NPRA cells in presence of 400 nM Fab 5504 was 18 nM and the EC50 of BNP for cGMP production in HEK NPRA cells in presence of 400 nM negative control Fab worked out at 90 nM.
